Source: PMC5349899

Assays:
[1] = target: biotinylated avi-tagged TGF-β3 (human); test: SPR; biotinylated avi-tagged TGF-β2 or TGF-β3 captured on streptavidin-coated CM5 chip at 50-80 RU; analytes injected as two-fold dilution series in HBS-EP at 100 µL/min (150 s); BIAcore 3000; global fit to a simple 1:1 model
[2] = target: biotinylated avi-tagged TGF-β2 (human); test: as above
[3] = target: TGF-β2 (in the calorimeter cell); test: ITC; ER or RER (50-110 µM) in the syringe, TGF-β2 (5-8 µM) in the cell; 10 mM sodium phosphate pH 7.4, 30 mM CHAPS; 37°C; Microcal PEAQ-ITC

Row | IC50 of inhibition of PAI-1 luciferase reporter activity in Mv1Lu mink lung epithelial cells induced with 20 pM TGF-β1 (TGF-β1) [pM] | reduction of Smad2 phosphorylation (Western blot) in MCF-10A cells stimulated with 2 pM TGF-β1 in the presence of 0, 0.01, 0.1, 1 and 10 nM ER (TGF-β1) [%] | Kd [1] [nM] | koff [1] [s⁻¹] | kon [1] [M⁻¹ s⁻¹] | koff [2] [s⁻¹] | kon [2] [M⁻¹ s⁻¹] | Kd [3] [nM] | stoichiometry N [3] [sites] | Kd [2] [nM] | Substance
1 | 14 | 30 |  |  |  |  |  |  |  |  | bivalent TGF-β receptor trap ER (BGE-RII) (from UniProt P37173 23-166)
2 |  |  | 0.0244 | 9.44e-06 | 387000 | 0.000253 | 307000 | 128 | 1.1 |  | RER receptor trap (TβRII-betaglycan endoglin domain-TβRII) (designed binder)
3 |  |  | 0.0505 | 1.97e-05 | 391000 | 0.000438 | 307000 | 215 | 1.05 | 1.44 | ER receptor trap (betaglycan endoglin domain-TβRII; rat BG-human TβRII receptor fusion) (designed binder)
4 |  |  | 94.6 | 0.0124 | 131000 | 0.00466 | 152000 |  |  | 30.6 | betaglycan endoglin domain (BGE) (domain or fragment)
